Results on 20 sequences are retold here after the DeepSol protein solubility set.

The nature of the series: soluble on expression in E. coli; label from the status in PepcDB or PDB records.
Consider “MTNPVDVNLINGIALAFEGDAVYSYYVRRHLIFQGKTKPSQLHRLATRYVSAKAQANLIQAMLEAQLLTEKEEDIYKRGRNTNSHTKAKNADIITYRMSTGFEAIMGYLDMMGQKERLEELIRWCIEYVEKQQLISSLEHHHHHH”, for which the “soluble on expression in E. coli” value was “soluble”.

With “GTQPTFGFTVNWKFSESTTVFTGQCFIDRNGKEVLKTMWLLRSSVNDIGDDWKATRVGINIFTRLRTQKEGGSGGSARKCSLTGKWTNDLGSNMTIGAVNSRGEFTGTYITAVTATSNEIKESPLHGTQNTINKSGGSTTVFTGQCFIDRNGKEVLKTMWLLRSSVNDIGDDWKATRVGINIFTRLRTQKEGGSGGSARKCSLTGKWTNDLGSNMTIGAVNSRGEFTGTYITAVTATSNEIKESPLHGTQNTINKRTQPTFGFTVNWKFSE”, the “soluble on expression in E. coli” value was “soluble”. Take “MMFDRRFFALVVLLCVSAVRSTEDASDDELNYEMDEGVVVLTDKNFDAFLKKNPSVLVKFYAPWCGHCKHLAPEYEKASSKVSIPLAKVDATVETELGKRFEIQGYPTLKFWKDGKGPNDYDGGRDEAGIVEWVESRVDPNYKPPPEEVVTLTTENFDDFISNNELVLVEFYAPWCGHCKKLAPEYEKAAQKLKAQGSKVKLGKVDATIEKDLGTKYGVSGYPTMKIIRNGRRFDYNGPREAAGIIKYMTDQSKPAAKKLPKLKDVERFMSKDDVTIIGFFATEDSTAFEAFSDSAEMLREEFKTMGHTSDPAAFKKWDAKPNDIIIFYPSLFHSKFEPKSRTYNKAAATSEDLLAFFREHSAPLVGKMTKKNAATRYTKKPLVVVYYNADFSVQYREGSEYWRSKVLNIAQKYQKDKYKFAVADEEEFAKELEELGLGDSGLEHNVVVFGYDGKKYPMNPDEFDGELDENLEAFMKQISSGKAKAHVKSAPAPKDDKGPVKTVVGSNFDKIVNDESKDVLIEFYAPWCGHCKSFESKYVELAQALKKTQPNVVLAKMDATINDAPSQFAVEGFPTIYFAPAGKKSEPIKYSGNRDLEDLKKFMTKHGVKSFQKKDEL”: the “soluble on expression in E. coli” value is “not soluble”.

With “MLTTLAISNYRTLREIVLPLGRLNVVTGANGSGKSNLYKALRLLAQTAQGGVVNALALEGGLDSCFWAGPENLTKGMLAGDTPIEATVRQAPKRLKLGFAGEDFSYLIELGLPKPDSTTLFGLDPQIKREAIWNGAKYRPASVLVERRGPMVKSRSQDGQGWITLSAHLQSSDSIFTELADPERSPEVLKLRDSIRAWRFYDHFRTDTDAPARRPQLGTATPVLHHDGRDLPSAIQTIFEIGDKSAFDHAVSDAFPGAKVRITPQAGGILQLEFQQQGLLRPLYASELSDGTLRYLLLIAALLTPRPPELMVLNEPETSLHPDLLPALARLIAKASEVCQLWVVSHANRLINALNQFEECNTLALDKTLGQTQILGQDLLNTPSWLWQNRLEHHHHHH”, the “soluble on expression in E. coli” value is listed as “soluble”. For the sequence “MSLGIPPNEAKTLGTYVPGDITLVDSYGNEFQLKNLKGKPIILSPIYTHCRAACPLITKSLLKVIPKLGTPGKDFWVITFTFDPKDTLEDIKRFQKEYGIDGKGWKVVKAKTSEDLFKLLDAIDFRFMTAGNDFIHPNVVVVLSPELQIKDYIYGVNYNYLEFVNALRLARGEGHHHHHH”, the “soluble on expression in E. coli” value was “soluble”. For the sequence “MPLKLTTYYQGSEIPDFPGTNTFHSKELFQIYEETPGYTPLLIMASEDGKPVARLLAAIRKSIRMFPPAFIKRCEIYGTGEYLTAEADKERIFGEMLEHLTTEALRNSFLIEFRNLENAMFGYKYFRSNRYFPVNWLRVRNSLHGIENAEQRFSPSRIRQIKKGLKNGAKVDEARTVEEIREFSNMLRHLYSSRIRKHFPNIIFFQHMDTRLIHSRQAKIFIVRYKDKIIGGSACIYSGNDAYLWFSGGMRKTYALQYPGILAVWKALQDAHQNGFRHMEFMDAGLPFKKHGYRDFVLRFGGKQSSTRRWFRFRWQWLNDLLIKIYV”, the “soluble on expression in E. coli” value is recorded as “not soluble”. In the case of “LYKKAGLMVDKKLVVVFGGTGAQGGSVARTLLEDGTFKVRVVTRNPRKKAAKELRLQGAEVVQGDQDDQVIMELALNGAYATFIVTNYWESCSQEQEVKQGKLLADLARRLGLHYVVYSGLENIKKLTAGRLAAAHFDGKGEVEEYFRDIGVPMTSVRLPCYFENLLSHFLPQKAPDGKSYLLSLPTGDVPMDGMSVSDLGPVVLSLLKMPEKYVGQNIGLSTCRHTAEEYAALLTKHTRKVVHDAKMTPEDYEKLGFPGARDLANMFRFYALRPDRDIELTLRLNPKALTLDQWLEQHKGDFNLL”, the “soluble on expression in E. coli” value is recorded as “soluble”. Consider “MTAATATANGNHSIEDPVVMKVQAASPIQETDFFENLYQMECFRTGEFYLKSGQMTPIYIDLRRIMSSPRVLRMAAQAMCEKIVASNLKFDYVVGVPYAALPLATLVSDILNVPMLMKRKEAKAYGTKQLIEGVYQPGGTVLLVEDVVTSGESIRETAEAIRNENLLVTDAIAVLDRQQGATANLAEDNLNFLSFLTMEKILDGLITKNEMTEERKHEIIAHLAKPF”, for which the “soluble on expression in E. coli” value is recorded as “soluble”. For “MSLNGSMVYGDFIRNQEVRKRITKEELGIEEDEIPERVVVTPMPFNTQFPKNFEDTLTNLGIKVNRLKVEDQILRQFGGNLLLEKDGNRGFIAFIGRGLIDFTERIRILATVSRIKDILFIGTAGSLSNEILIGDLNIPKYAIPFENVSDFYADPTIAIPQADEKLLNEVYEYAEETGVKTHSTLHATLLFPYSETTEFLNYLLNIGVSTIDMEVSAFYKMSRFYGKRAVAVLRISDMPLIELHKQEELIKARREIAVNAVFRITLRFLKLEGHHHHHH”, the “soluble on expression in E. coli” value is reported as “soluble”. On to “MEGIPGQRDGVYWLPPAEDGKDPATPWWLCSPLHVLAETRDASQSNWGRLLEWRDNDGHPHRWACPVEMLAASDTAEFRRELVRGGLTMSTSQKARQKLVDYVLSHRQAAATRLRCVSRIGWHDVRYVLPGEVHGEQDGEGVIYQGADSGDFDRAGTLQEWQTHIAAAAAGNSRIVFAISVAFAGVLADMAGESGGGFHFVGTTSKGKTSTLLDPAASVWGNPDQFAKKWRTTQNGLEGLCLGRNDNLLILDELAQIAPADAGGAAYLIANGQAKARMTKEGGNRPAHTWRVMLLSAGEIDLAQHMAEAGKSAKGGQIARLPAIPADAGAGMGTLEQLHQHPSGQAFADAMKAYSRQYYGTAGPAFLAALTPPECMDEIRRDIKDGVTGLIEYLGVPAGAAQEVGRVAARFALVAFAGELATRYGVTGWKPGEAVQAARRCFREWLAENHTGMAADDRALFAQVSGFMQTHSSTRFPPHDAAPEVLARYLNRAGFTFIDEQGTQQFWVLSEPFKKELCRGYTPLIAARSLLRAGWLLAGDTEGNTRRHTRKKRIKALDSATVNVYVLTSTVLEGEELEHHHHHH”, for which the “soluble on expression in E. coli” value is “not soluble”. Then “SKHYPEAGIQYSSSTTGDGRPLDIEFSGSCSLEKFYDNPKSNDGNSYRLQSWLYASRLLQYSDALEHLLSTGQGVVLERSIYSDFVFLEAMYNQGFIRKQCVDHYNEIKRLTLPEYLPPHAVIYIDVPVSEIQSRIQKKGDPHEMKVTSAYLQDIEDAYKKTFLPKMSEICEVLVYSSWEAEDSTKVVEDIEYLNYNKGPWLKQDDRTFHNLRMLVQDKREVLNYTTVPVYLPEITIGAHQGSRIYDSFRELPGRKYAPGYNADVGDKWIWLK”, with “soluble”. With “MSLTNLHYTVKSLMRFKDKTVIISGGGNSAIDWANELEPIAKKVYLTYRKEALNGHEAQISQLLSSSATCLFHTTISKLIARDNKEVIEQVELTDHQTGEVTNLAVDEVIINHGYERDKSLLDQSEVTLDRIDDYYIAGTPTSATSVGGIYAAGDVLKHEGKLHLIAGAFQDAANAVNQAKQWIEPEAHQSAMVSSHNHVFKERNRELIRQMLKEGHHHHHH”, the “soluble on expression in E. coli” value is given as “not soluble”.

For “SSQKSLFREDWFQNGSFVSLTLYIKDVDRDESNVTFTQQTVTVNLFSARDKSIYEQTWELSHPVVAEQSLVTYFPQKVELKMKKKEEGLLWKQLTSGATLKSSDNTQSSYSSRETASLQSGRFPKQFAVEEDDDEEQDQSKDLLAFFRDIYEKSDEDTRRAMVKSFVESQGKVLSTDWKKVSSQNSRYDNE”, the “soluble on expression in E. coli” value is “soluble”. As to “MAHHHHHHMGCSASKDTTNSKDGAASKGGKDGKTTADRKVAWERIRCAIPRDKDAESKSRRIELFKRFDTNGTGKLSFREVLDGCYSILKLDEFTTHLPGIVQRAFDKAKDLGNKVKGVGEEDLVEFLEFRLMLCYIYDIFELTVMFDTMDKDGSLLIELQEFKEALPKLKEWGVDITDATTVFNEIDTNGSGVVTFDEFSCWAVTKKLQVCGDPDGEGAAKTTADRKVAWERIRCAIPRDKDAESKSRRIELFKQFDTNGTGKLGFREVLDGCYSVLKLDEFTTHLPDIVQRAFDKAKDLGNRVKGVGEEDLVEFLEFRLMLCYIYDIFELTVMFDTMDKDGSLLLELQEFKEALPKLKEWGVDITDATTVFNEIDTNGSGVVTFDEFSCWAVTKKLQVCGDPDGEENGANEGN”, the “soluble on expression in E. coli” value is on record as “soluble”.

In the case of “MAAADIARQLGEDCRTVPLAGHVGFDSLPDQLVNKSVSQGFCFNILCVGETGLGKSTLMDTLFNTKFEGEPATHTQPGVQLQSNTYDLQESNVGLKLTIVSTVGFGDQINKEDSYKPIVEFIDAQFEAYLQEELKIRRVLHSYHDSRIHVCLYFIAPTGHSLKSLDLVTMKKLDSKVNIIPVIAKSDAISKSELAKFKIKITSELVSNGVQIYQFPTDDESVSEINGTMNAHLPFAVCSTEEVKIGNKMMRARQYPWGTVQVENEAHCDFVKLREMLIRVNMEDLREQTHARHYELYRRCKLEEMGFKDTDPDSKPFSLQETYEAKRNEFLGELQKKEEEMRQMFVQRVKEKEAELKEAEKELHEKFDRLKKLHQEEKKKLEDKKKCLDEEMNAFKQRKAAAELLQSQGSQAGGSQTLKRDKEKKNNPWLCIE”, the “soluble on expression in E. coli” value is on record as “soluble”.

Turning to “MSLVSLPGLPAMISEISKRNNLPTTAVEEALREALLKGYERFRRSQLMGHQFPEEYFNNFEVELDTEEEGFRVLSTKRIVEEVENSDQQISLKEVLEVAEEAQLGDEVVLDVTPEQKDFGRMAAIQTKQVLLQKLRDQQRKIIQEEFQDLEGTVLNARALRFERQSIIVAVQSSFGQPEVEAELPKREQLPNDNYRANSTFRVYLKRVREGSQRGPQLVVSRAAAGLVVDLFSVEVPEIEEEVVRIVAVAREAKPPSPSVGPRTKIAVDTLERDVDPVGACIGARGSRIHAVVNELRGEKIDVIRWSPDPATYIAQALSPARVDQVYLIHAEERHALVIVAEDQLSLAIGKEGQNVRLAARLTGWKIDIKDPETYARDKEAIEQSILERAAASAQARAEREAAEQEAQAKLEAEMAALEAEEAEELEETPEAIAEVEEEVEEWDQDQGPELGEEEELSLEHHHHHH”, the “soluble on expression in E. coli” value is “soluble”.

Take “MGHHHHHHSHCPQESVYCENKCGARMMRRLLAQHATSECPKRTQPCTYCTKEFVFDTIQSHQYQCPRLPVACPNQCGVGTVAREDLPGHLKDSCNTALVLCPFKDSGCKHRCPKLAMARHVEESVKP”: the “soluble on expression in E. coli” value is “not soluble”. Take “DSTITGASEKAEDAFKASYPAVYRYLEGYKDLLTKRNQAETGIRYEWYALQRWGANYWEDFSKPKIMWKRIGSILRFCYNENGALGLDSTCFAAGKG”: the “soluble on expression in E. coli” value is listed as “not soluble”.

With “MGHHHHHHSHMLALATSIHQSQLDRERILSLEQRVVELQQTLAQKDQALGKLEQSLRLMEEASFDGTFLWKITNVTRRCHESACGRTVSLFSPAFYTAKYGYKLCLRLYLNGDGTGKRTHLSLFIVIMRGEYDALLPWPFRNKVTFMLLDQNNREHAIDAFRPDLSSASFQRPQSETNVASGCPLFFPLSKLQSPKHAYVKDDTMFLKCIVETST”, the “soluble on expression in E. coli” value is “not soluble”. The same measure for “MPQDPRHPEHQYLDLVKHILENGARRMDRTGTGTLSVFGATMRFSLEDNTFPLLTTRRVFYRGVVEELLFFLRGETDSKVLEKKGVRIWEKNGAKQFLQSVGIDREEGDLGPIYGFQWRHFGARYETSASSYEGKGVDQIASAIAAIRANPASRRIVVSAWNPTDLGSMALPPCHVLFQFNVTDGKLSCAMYQRSGDMGLGVPFNIASYSLLTILVAHLTGLQPGEFVHFLGDAHVYLDHVDSLRQQIQRPPRAFPKLFVSPKGPRTEPEHFQYEDFELVGYDPHPAIKMNMSA”: “soluble”.
